Our source for the binding signal (fold enrichment), activity (fold diversification vs GFP-LacI) and Kd values is patent US20100093033.

The subject of one data set is E2A (Gallus gallus). The conditions noted are these: ChIP with anti-E2A vs IgG, normalized to ovalbumin.
Data set [1] concerns the target E47-LacI fusion (Escherichia coli LacI; E47 organism not stated) (UniProt P03023). Kind of data set: cell_activity. To be noted: sIgM loss; almost reversed by 100 uM IPTG.
The target in data set [2] is LacI-HP1 fusion (Escherichia coli LacI; Drosophila melanogaster HP1a) (UniProt P03023). Kind of data set: cell_activity. To be noted: sIgM loss; chromatin effects largely reversed by 250 uM IPTG.
Data set [3] addresses HIRA-LacI fusion (Escherichia coli LacI; HIRA organism not stated) (UniProt P03023). Kind of data set: cell_activity. To be noted: sIgM loss; untethered HIRA 1.7-fold.
For data set [4], the target named is Lactose repressor LacI (Escherichia coli) (UniProt P03023). The conditions noted are these: CITED general LacO affinity, method not stated; printed as <10-12 M; cited from earlier work.

Turning to rearranged VλR allele, DT40, in the data set on E2A (Gallus gallus), the binding signal (fold enrichment) was found to be 17.6.
On to “PolyLacO at Igλ (about 80-100 repeats of 20 bp lac operator, 3.8 kb)”, for which the activity (fold diversification vs GFP-LacI) turned out to be 4.5 in data set [1], 5.6 in data set [2] and 11 in data set [3]. Further, the Kd in data set [4] was below 1 pM.

In general, Kd refers to the constant that tells how readily two partners part at equilibrium.
